Experiments:
[1] = target: Vip3Ab1 (full length, not digested) (Bacillus thuringiensis); assay: SEC; analytical size exclusion chromatography of the full-length protein incubated overnight without midgut fluid, pH 10.0; 6 µL injected at 150 µg/mL; size estimated from molecular weight standards
[2] = target: Vip3Ab1 processed by midgut fluid (~65 kDa and ~20 kDa products that remain associated) (Bacillus thuringiensis); assay: SEC; analytical size exclusion chromatography after overnight digestion at pH 10.0, 30 °C, with S. frugiperda or S. eridania midgut fluid; 6 µL injected at 150 µg/mL; size estimated from molecular weight standards
[3] = target: Vip3Ab1-740 (full length, not digested) (Bacillus thuringiensis); assay: SEC; analytical size exclusion chromatography of the full-length protein incubated overnight without midgut fluid, pH 10.0; 6 µL injected at 150 µg/mL; size estimated from molecular weight standards
[4] = target: Vip3Ab1-740 processed by midgut fluid (~65 kDa and ~20 kDa products that remain associated) (Bacillus thuringiensis); assay: SEC; analytical size exclusion chromatography after overnight digestion at pH 10.0, 30 °C, with S. frugiperda or S. eridania midgut fluid; 6 µL injected at 150 µg/mL; size estimated from molecular weight standards

Vip3Ab1 (full length, not digested) (natural protein)
stoichiometry N [1]: 4

Vip3Ab1 processed by midgut fluid (~65 kDa and ~20 kDa products that remain associated) (complex)
stoichiometry N [2]: 4

Vip3Ab1-740 (full length, not digested)
stoichiometry N [3]: 4

Vip3Ab1-740 processed by midgut fluid (~65 kDa and ~20 kDa products that remain associated) (complex)
stoichiometry N [4]: 4

From publication PMC6563307
